# Source: FireProtDB (doi:10.1021/bi00066a003)
# Settings: Geobacillus stearothermophilus, pH 7.5, 25 °C, Fluorescence, TEA 50 mM, reversible: yes, whole UniProt chain shown
protein,measurement,setting,value
"Phosphoglycerate kinase wild type, P18912 (protein) MNKKTIRDVDVRGKRVFCRVDFNVPMEQGAITDDTRIRAALPTIRYLIEHGAKVILASHLGRPKGKVVEELRLDAVAKRLGELLERPVAKTNEAVGDEVKAAVDRLNEGDVLLLENVRFYPGEEKNDPELAKAFAELADLYVNDAFGAAHRAHASTEGIAHYLPAVAGFLMEKELEVLGKALSNPDRPFTAIIGGAKVKDKIGVIDNLLEKVDNLIIGGGLAYTFVKALGHDVGKSLLEEDKIELAKSFMEKAKEKGVRFYMPVDVVVADRFANDANTKVVPIDAIPADWSALDIGPKTRELYRDVIRESKLVVWNGPMGVFEMDAFAHGTKAIAEALAEALDTYSVIGGGDSAAAVEKFGLADKMDHISTGGGASLEFMEGKQLPGVVALEDK",unfolding free energy,GdnHCl,4.35 kcal/mol
same,unfolding free energy,Urea,4.21 kcal/mol
